Laboratory results published in doi:10.1101/2021.05.05.442822.

Assays:
[1] = target: G9a ANK-SET, N-terminally 6xHis-tagged (His:G9a) or N-terminally Maltose Binding Protein tagged (MBP:G9a) (human); assay: pull-down
[2] = target: G9a ANK-SET, tag cleaved (human); assay: SEC-MALS
H3K9me0 peptide = assay: FP; conditions: complex
[3] = target: unmethylated (H3K9me0) mononucleosome; assay: fluorescence polarisation
[4] = target: fluoresceinated H3 1-20 K9me2 peptide (UniProt P68431); assay: fluorescence polarisation

G9a ANK-SET homodimer, sequence (Q96KQ7 whole entry, looked up): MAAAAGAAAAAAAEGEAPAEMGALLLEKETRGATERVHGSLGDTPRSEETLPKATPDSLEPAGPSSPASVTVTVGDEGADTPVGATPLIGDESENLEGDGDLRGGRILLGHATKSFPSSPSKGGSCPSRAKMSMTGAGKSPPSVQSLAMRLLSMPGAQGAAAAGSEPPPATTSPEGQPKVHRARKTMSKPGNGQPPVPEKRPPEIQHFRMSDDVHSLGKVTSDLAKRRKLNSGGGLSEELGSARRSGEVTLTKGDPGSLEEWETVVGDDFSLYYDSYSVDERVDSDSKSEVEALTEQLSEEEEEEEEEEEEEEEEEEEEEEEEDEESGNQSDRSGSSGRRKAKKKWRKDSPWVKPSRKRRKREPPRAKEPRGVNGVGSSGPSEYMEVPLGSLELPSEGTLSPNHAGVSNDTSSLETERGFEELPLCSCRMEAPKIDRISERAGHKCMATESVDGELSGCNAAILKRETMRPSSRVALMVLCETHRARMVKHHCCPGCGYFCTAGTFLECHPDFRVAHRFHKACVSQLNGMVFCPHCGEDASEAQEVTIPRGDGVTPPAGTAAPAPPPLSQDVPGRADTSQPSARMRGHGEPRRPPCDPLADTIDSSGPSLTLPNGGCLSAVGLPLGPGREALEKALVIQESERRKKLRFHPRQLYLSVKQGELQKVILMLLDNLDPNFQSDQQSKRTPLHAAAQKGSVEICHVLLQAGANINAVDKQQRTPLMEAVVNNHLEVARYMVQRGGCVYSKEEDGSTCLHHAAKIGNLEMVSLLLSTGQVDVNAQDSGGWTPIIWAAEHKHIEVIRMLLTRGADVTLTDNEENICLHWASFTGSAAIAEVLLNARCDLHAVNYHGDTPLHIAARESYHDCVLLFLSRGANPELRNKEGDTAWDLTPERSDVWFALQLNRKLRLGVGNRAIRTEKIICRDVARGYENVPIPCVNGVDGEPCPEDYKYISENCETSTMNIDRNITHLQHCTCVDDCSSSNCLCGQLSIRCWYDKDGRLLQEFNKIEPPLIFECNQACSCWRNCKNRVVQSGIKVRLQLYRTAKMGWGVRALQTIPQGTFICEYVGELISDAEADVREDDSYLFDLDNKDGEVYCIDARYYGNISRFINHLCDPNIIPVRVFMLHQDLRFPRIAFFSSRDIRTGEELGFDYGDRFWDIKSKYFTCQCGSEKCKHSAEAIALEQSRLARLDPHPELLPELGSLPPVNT

## GLP ANK-SET, N-terminally Maltose Binding Protein tagged (MBP:GLP) (domain or fragment)
[1]
  stoichiometry N: 1

## GLP ANK-SET, tag cleaved (domain or fragment)
[2]
  stoichiometry N: 1

## G9a ANK-SET, N-terminally 6xHis-tagged (His:G9a) or N-terminally Maltose Binding Protein tagged (MBP:G9a) (domain or fragment)
[1]
  stoichiometry N: 2

## G9a ANK-SET homodimer (from UniProt Q96KQ7)
H3K9me0 peptide
  Kd: 100 µM

## GLP ANK-SET homodimer (complex)
[3]
  Kd: 26.3 µM
[4]
  fold reduced binding: 12.5 times
